Here are results for four molecules from patent US20250152742A1, “COMPOSITIONS AND METHODS FOR NEUROLOGICAL DISEASES” (Trames Bio, Inc., priority 2022, published 2025).

Usually EC50 stands for the concentration needed to bring the measured effect to its halfway point.

Experiment [1] deals with SEQ ID NO: 33 (CODA71) versus wild type α7-nAChR (Homo sapiens, UniProt P36544, F159M/H163T/I152M/R155K/V154L/W156N/Y151P). Nature of the experiment: Sensitivity of parental chimera SEQ ID NO: 33 to ligands compared with wild type α7-nAChR. The source says:
To generate LGICs that conduct anion current following exposure to non-native small molecule agonists of the human α7-nAChR, chimeric ligand gated ion channel (LGIC) receptors comprising the ligand binding domain derived from the human α7 nicotinic acetylcholine receptor (α7-nAChR) and the chloride-conducting ion pore domain derived from the human GlyR1α were genetically engineered. […] SEQ ID NO:33 was approximate 2-fold less sensitive to nicotine and approximately 3-fold and 10-fold more sensitive to AZD-0328 and Facinicline/RG3487, respectively, than wild type. CODA71 is described in detail in WO2019104307 and WO2021035179, which are incorporated herein in their entireties.

Experiment [2] concerns engineered receptors expressed in rat DRG neurons. Nature of the experiment: Manual patch clamp ligand-induced chloride currents / EC50, rat DRG neurons. The settings on record: for EC50: ligand TC-5619, Rat DRG Neurons, read-out: Manual patch clamp based EC50, TC-5619. Format: cell-based. As to the method: (§1) Using whole cell manual patch clamp electrophysiology in HEK293 cells, rat DRG neurons and rat hippocampal neurons, the EC50 of the various engineered receptors disclosed herein to Ach and non-native ligands was measured using the Hill equation with peak current measurements from escalating doses of ligand. The rheobase shift was also measured in rat DRG neurons, which reflects the efficacy of the receptors. To calculate the rheobase, first, the amount of current that can produce an action potential was determined. Then the ligand was added, followed by a step wise increase in the current injected up to 700 pA.
(§2) For manual patch clamp experiments, Cells plated on coverslips were visualized at 10x and 40x on an inverted fluorescence microscope (Olympus). Recordings were made with an Axopatch 200B amplifier and Digidata 1550B (Molecular Devices) at RT using 3-6 MOhm glass patch electrodes (Sutter, BF150-86-10). Unless otherwise stated, recordings were made in extracellular solution (ECS) containing: 140 mM sodium chloride, 4 mM potassium chloride, 1 mM magnesium chloride, 2 mM calcium chloride, 10 mM HEPES, and 10 mM D-(+)-glucose (pH=7.3 with sodium hydroxide, osmolarity=305-315 mOsm). An 8-line reservoir (AutoMate Scientific) in combination with an 8-channel zero-dead-volume perfusion pencil (AutoMate Scientific) was used for perfusion. Data was acquired using pClamp software (Molecular Devices). Traces were either analyzed in Clampfit (Molecular Devices) or using custom Python code. Plotting and statistics were performed in GraphPad Prism.
For dose-response, ligand-induced currents were recorded in voltage clamp mode. For HEK cell experiments, recordings took place in the normal ECS with a cesium-based internal solution containing: 140 mM cesium chloride, 5 mM potassium fluoride, 2 mM Calcium chloride, 2 mM magnesium chloride, 10 mM HEPES, and 10 mM EGTA (pH=7.2 with cesium hydroxide, osmolarity=290-295 mOsm). […]
(The patch-clamp technique gives a direct electrical read-out from membranes.)

The subject of experiment [3] is engineered receptors and wildtype nAchRa7 receptor expressed in HEK293 cells. Put plainly: Whole cell manual patch clamp electrophysiology, EC50, HEK293 cells. Format: cell-based, human. The settings on record: for EC50: ligand TC-5619, HEK293 cell line, read-out: Manual patch clamp based EC50, TC-5619. On the procedure:
as §1, §2
For dose-response, ligand-induced currents were recorded in voltage clamp mode. For HEK cell experiments, recordings took place in the normal ECS with a cesium-based internal solution containing: 140 mM cesium chloride, 5 mM potassium fluoride, 2 mM Calcium chloride, 2 mM magnesium chloride, 10 mM HEPES, and 10 mM EGTA (pH=7.2 with cesium hydroxide, osmolarity=290-295 mOsm). For DRG neuron experiments, cells were patched in normal ECS and then switched to an NMDG-based ECS to prevent endogenous cation currents, containing: 145 mM N-methyl-D-glucamine, 4 mM potassium chloride, 0.5 mM magnesium chloride, 0.5 mM calcium chloride, 10 mM HEPES, and 10 mM D-(+)-glucose (pH=7.4 with hydrochloric acid, osmolarity=305-315mOsm). […] Capacitance and series resistance were compensated. Drugs tested include acetycholine chloride and other synthetic compounds. Drug doses were applied for 1-10 sec until the peak of the current was observed, and washes occurred for at least 2 min between dose applications. The holding current was subtracted from the peak to find the current amplitude.
Cell culture: HEK 293 cells were routinely subcultured in DMEM with 10% fetal bovine serum (ThermoFisher Scientific). […]

[4] abbreviates: HEK293 cells and cultured rat DRG sensory neurons.

B1: CODA71: parental chimeric LGIC: human α7-nAChR ligand binding domain with GlyRα1 Cys-loop fused to human GlyRα1 ion pore domain (protein)
chain: MRCSPGGVWLALAASLLHVSLQGEFQRKLYKELVKNYNPLERPVANDSQPLTVYFSLSLLQIMDVDEKNQVLTTNIWLQMSWTDHYLQWNVSEYPGVKTVRFPDGQIWKPDILLYNSADERFDATFHTNVLVNSSGHCQYLPPGIFKSSCPMDLKNFPMDVQTCKLKFGSWSYGGWSLDLQMQEADISGYIPNGEWDLVGIPGKRSERFYECCKEPYPDVTFTVTMRRRMGYYLIQMYIPSLLIVILSWISFWINMDAAPARVGLGITTVLTMTTQSSGSRASLPKVSYVKAIDIWMAVCLLFVFSALLEYAAVNFVSRQHKELLRFRRKRRHHKSPMLNLFQEDEAGEGRFNFSAYGMGPACLQAKDGISVKGANNSNTTNPPPAPSKSPEEMRKLFIQRAKKIDKISRIGFPMAFLIFNMFYWIIYKIVRREDVHNQ
modifications: synthetic sequence of chimeric LGIC
With B1, in experiment [1] (ligand ABT-126), the “sensitivity to ABT-126 compared with wild type α7-nAChR” value is recorded as “approximately as sensitive”. Also, the “fold more sensitive to AZD-0328 than wild type” value in experiment [1] (ligand AZD-0328) was “approximately 3 fold”. Moreover, in experiment [1] (ligand Facinicline/RG3487), the “fold more sensitive to Facinicline/RG3487 than wild type” value is about 10 fold. Besides, in experiment [1] (ligand TC-6987), the “sensitivity to TC-6987 compared with wild type α7-nAChR” value was “approximately as sensitive”. Further, in experiment [1] (ligand TC-6987, similar to wild type), the “agonist activity of TC-6987 on the receptor” value is “partial agonist activity”. For the same molecule, the “sensitivity to acetylcholine compared with wild type α7-nAChR” value in experiment [1] (ligand acetylcholine) was “approximately as sensitive”. Further, the “fold less sensitive to nicotine than wild type” value in experiment [1] (ligand nicotine) is recorded as about 2 fold.

B2: CODA806: engineered receptor: Y115D, L131Q in SEQ ID NO: 33 (Chemogenic receptor-11) (protein)
chain: MRCSPGGVWLALAASLLHVSLQGEFQRKLYKELVKNYNPLERPVANDSQPLTVYFSLSLLQIMDVDEKNQVLTTNIWLQMSWTDHYLQWNVSEYPGVKTVRFPDGQIWKPDILLDNSADERFDATFHTNVQVNSSGHCQYLPPGIFKSSCPMDLKNFPMDVQTCKLKFGSWSYGGWSLDLQMQEADISGYIPNGEWDLVGIPGKRSERFYECCKEPYPDVTFTVTMRRRMGYYLIQMYIPSLLIVILSWISFWINMDAAPARVGLGITTVLTMTTQSSGSRASLPKVSYVKAIDIWMAVCLLFVFSALLEYAAVNFVSRQHKELLRFRRKRRHHKSPMLNLFQEDEAGEGRFNFSAYGMGPACLQAKDGISVKGANNSNTTNPPPAPSKSPEEMRKLFIQRAKKIDKISRIGFPMAFLIFNMFYWIIYKIVRREDVHNQ
modifications: synthetic sequence of chimeric LGIC
On to B2, for which the “chloride current on application of RG-3487 (SA-2)” value in experiment [2] (cultured adult rat DRG neurons, not observed in non-transduced cells, FIG. 3) is on record as “generated chloride current in a dose dependent manner”. Moreover, in experiment [3] (setting [4]), the “sensitivity to RG-3487 compared to wildtype nAchRa7 receptor” value is “way more sensitive to RG-3487” and the “sensitivity to acetylcholine compared to wildtype nAchRa7 receptor” value was “essentially insensitive to acetylcholine”.

B3: COAD1056 (protein)
chain: MRCSPGGVWLALAASLLHVSLQGEFQRKLYKELVKNYNPLERPVANDSQPLTVYFSLSLLQIMDVDEKNQVLTTNIWLQMSWTDHYLQWNVSEYPGVKTVFFPDGQIWKPDILLENSADERFDATFHTNVLVNSSGHCQYLPPGIFKSSCPMDLKNFPMDVQTCKLKFGSWSYGGWSLDLQMQEADISGYIPNGEWDLVGIPGKRSERFWECCKEPYPDVTFTVTMRRRMGYYLIQMYIPSLLIVILSWISFWINMDAAPARVGLGITTVLTMTTQSSGSRASLPKVSYVKAIDIWMAVCLLFVFSALLEYAAVNFVSRQHKELLRFRRKRRHHKSPMLNLFQEDEAGEGRFNFSAYGMGPACLQAKDGISVKGANNSNTTNPPPAPSKSPEEMRKLFIQRAKKIDKISRIGFPMAFLIFNMFYWIIYKIVRREDVHNQ
modifications: synthetic sequence of chimeric LGIC
Consider B3, for which the results for the 50% effective concentration (EC50) in experiment [2] and in experiment [3] were 116 nM and 96 nM, respectively.

B4: COAD1055 (protein)
chain: MRCSPGGVWLALAASLLHVSLQGEFQRKLYKELVKNYNPLERPVANDSQPLTVYFSLSLLQIMDVDEKNQVLTTNIWLQMSWTDHYLQWNVSEYPGVKTVWFPDGQIWKPDILLENSADERFDATFHTNVLVNSSGHCQYLPPGIFKSSCPMDLKNFPMDVQTCKLKFGSWSYGGWSLDLQMQEADISGYIPNGEWDLVGIPGKRSERFWECCKEPYPDVTFTVTMRRRMGYYLIQMYIPSLLIVILSWISFWINMDAAPARVGLGITTVLTMTTQSSGSRASLPKVSYVKAIDIWMAVCLLFVFSALLEYAAVNFVSRQHKELLRFRRKRRHHKSPMLNLFQEDEAGEGRFNFSAYGMGPACLQAKDGISVKGANNSNTTNPPPAPSKSPEEMRKLFIQRAKKIDKISRIGFPMAFLIFNMFYWIIYKIVRREDVHNQ
modifications: synthetic sequence of chimeric LGIC
As to B4, the EC50 in experiment [2] turned out to be 56 nM; in experiment [3], 16 nM.
